Results on three molecules are retold here after patent US20110318348A1 (NATIONAL RESEARCH COUNCIL OF CANADA, published 2011).

Test [1] has as its target T1, bovine serum albumin (bovine, UniProt P02769 25-607).
T1 construct: also called BSA
As to the kind of experiment: SPR (Biacore 3000), BSA immobilized on CM5.

Test [2] concerns the target T1, bovine serum albumin. In words: SPR (Biacore 3000), BSA immobilized on CM5, extended dissociation.
Test [3] addresses T1, bovine serum albumin. In words: SPR (Biacore 3000), BSA immobilized on CM5, calculated from ka and kd.
Test [4] has as its target T1, bovine serum albumin. In words: SPR (Biacore 3000), BSA immobilized on CM5, 1:1 model; SE 3.2 × 10^3 in r12c3.
Test [5] addresses T1, bovine serum albumin. As to the kind of experiment: SPR (Biacore 3000), BSA immobilized on CM5, 4 h dissociation time; SE 3 × 10^-8 in r12c4.
In test [6] the target is T1, bovine serum albumin. In words: SPR (Biacore 3000), BSA immobilized on CM5; estimated, no 1:1 fit.
Procedure: (§1) 1700 RUs of BSA (Sigma) were immobilized on research grade CM5-sensorchip (BIACORE). Ethanolamine blocked surface was used as a reference. Immobilizations were carried out at the protein concentrations of 50 μg/ml in 10 mM acetate pH4.5 using amine coupling kit supplied by the manufacturer. Antibodies were passed through Superdex 75 (GE Healthcare) column to separate monomer prior to BIACORE analysis.
(§2) In all instances, analyses were carried out at 25° C. in HBS-E buffer (10 mM HEPES, 150 mM NaCl and 3 mM EDTA, pH7.4) supplemented with 0.005% surfactant P20 at a flow rate of 20 ul/min. The surfaces were regenerated with 100 mM HCl (3 seconds). Data were analyzed with BIAevaluation 4.1 software.
Test [7] concerns the target T1, bovine serum albumin. As to the kind of experiment: SPR (Biacore 3000), BSA immobilized on CM5; profiles did not fit a 1:1 model.
Procedure: as §1, §2
The target of test [8] is T1, bovine serum albumin. In words: SPR (Biacore 3000), BSA immobilized on CM5, 1:1 model; SE 2.2 × 10^4 in r14c3.
Procedure: as §1, §2
Test [9] addresses T1, bovine serum albumin. In words: SPR (Biacore 3000), BSA immobilized on CM5, 1:1 model; SE 1.1 × 10^-8 in r14c5.
Procedure: as §1, §2
Test [10] deals with T1, bovine serum albumin. As to the kind of experiment: SPR (Biacore 3000), BSA immobilized on CM5, 1:1 model; SE 5.4 × 10^-3 in r14c4.
Procedure: as §1, §2

T1 sequence (P02769 25-607 limits assumed): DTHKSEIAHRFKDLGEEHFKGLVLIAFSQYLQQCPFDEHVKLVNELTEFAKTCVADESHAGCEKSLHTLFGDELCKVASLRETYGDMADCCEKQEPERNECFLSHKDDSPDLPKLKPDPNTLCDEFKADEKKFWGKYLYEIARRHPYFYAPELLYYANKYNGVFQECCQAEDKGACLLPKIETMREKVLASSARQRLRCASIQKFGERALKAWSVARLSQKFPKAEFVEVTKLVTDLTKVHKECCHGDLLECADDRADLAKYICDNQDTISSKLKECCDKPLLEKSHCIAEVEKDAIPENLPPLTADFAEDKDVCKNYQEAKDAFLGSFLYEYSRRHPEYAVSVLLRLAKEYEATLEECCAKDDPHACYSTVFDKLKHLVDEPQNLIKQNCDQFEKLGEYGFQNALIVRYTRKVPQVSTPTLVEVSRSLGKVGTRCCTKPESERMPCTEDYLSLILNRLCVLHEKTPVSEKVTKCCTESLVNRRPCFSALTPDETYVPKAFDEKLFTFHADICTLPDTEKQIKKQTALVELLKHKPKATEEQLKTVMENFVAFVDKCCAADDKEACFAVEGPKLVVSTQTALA

B1: sdAb BSA12 (VHH, part only)
VHH: QVKLEESGGGLVQVGDSLRLSCAASGRTFSNYTMAWFRQFPGKEREFVAVVSRGGGATDYADSVKGRFTISRDNAKNTMYLQMNSLKTDTAVYYCAAGTDLSYYYSTKKWAYWGQGTQVTVSS
modifications: c-Myc and 6xHis tags
Consider B1, for which the binding capacity (RU) in [1] worked out at 150 RU. Also, the koff in test [2] worked out at 1e-05 s⁻¹; in test [5], 9e-06 s⁻¹. Besides, in [3], the dissociation constant Kd is 0.004 nM. The molecule further registered a kon in test [4] of 2.5e+06 M⁻¹ s⁻¹.

B2: sdAb BSA8 (VHH)
VHH: QVKLEESGGGLAQAGGSLRLSCAASERTFIRYTIGWFRQAPGKEREFVGRVNWSGGDTYYADSVKGRFTISRDNAKTTVTLQMSSLKPEDTAVYSCAASPKWSEIPREYIYWGPGTQVTVSS
With B2, the Kd in test [6] is around 100 nM. In test [7], this molecule yielded an off-rate constant (koff) of 0.005 s⁻¹.

B3: sdAb BSA16 (VHH)
VHH: QVKLEESGGGLVQAGGSLRLSCAPSGRTFRTWRMGWFRQAPGKEREFVAAINLNTGNTYYVDSVKGRFTISGDYAKNTLYLQMNSLKPEDTAVYFCAARSPDSDYVPLSSIDYQYWGQGTQVTVSS
B3 came in with a kon in test [8] of 1e+06 M⁻¹ s⁻¹. The molecule also displayed a Kd in test [9] of 280 nM. In addition, the koff in test [10] turned out to be 0.27 s⁻¹.
